2 molecules from patent publication US20230068663A1 (University of Texas, published 2023) can be followed below.

A value given as a limit tells only on which side of the number the result lay.

Experiment [1] concerns the target T1, LILRB2-His antigen (UniProt Q8N423 22-460, limits assumed).
T1 construct: Coated on ELISA plates; also used for phage panning; also called LILRB2 antigen; not shown: His tag
Put plainly: ELISA titration on LILRB2 and LILRA1 antigens. For orientation: ELISA stands for enzyme-linked immunosorbent assay.

Experiment [2] concerns the target T1, LILRB2-His antigen. Description: indirect ELISA, coated LILRB2-His. Here is the method: ELISA binding EC of LILRB2 antibodies. The ELISA binding EC₅₀ of these 24 antibodies were measured by indirect ELISA. […] After incubation, HRP-conjugated goat anti-human Fc secondary antibody was incubated with the plates. The TMB substrate was added for color development and measurement of absorbance at 450 nm.

Experiment [3] deals with T2, LILRA5.
T2 construct: also called LILRA5 reporter cells
T2 sequence (chain, as listed by the source limits assumed): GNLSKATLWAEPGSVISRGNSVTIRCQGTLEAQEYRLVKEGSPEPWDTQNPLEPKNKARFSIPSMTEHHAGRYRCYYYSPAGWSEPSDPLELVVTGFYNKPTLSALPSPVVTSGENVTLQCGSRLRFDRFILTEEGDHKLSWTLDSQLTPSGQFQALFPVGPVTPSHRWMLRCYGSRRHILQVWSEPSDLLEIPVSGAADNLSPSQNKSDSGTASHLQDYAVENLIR
Put plainly: flow cytometry, reporter cells [cont'd].

Experiment [4] addresses T3, LILRA6.
T3 construct: also called LILRA6 reporter cells
Description: flow cytometry, reporter cells [cont'd]. A general note: Flow cytometry measures light scatter and fluorescence of single cells or particles in a stream.

The target in experiment [5] is T4, LAIR1 on reporter cells (UniProt Q6GTX8 22-165, limits assumed).
T4 sequence (looked up): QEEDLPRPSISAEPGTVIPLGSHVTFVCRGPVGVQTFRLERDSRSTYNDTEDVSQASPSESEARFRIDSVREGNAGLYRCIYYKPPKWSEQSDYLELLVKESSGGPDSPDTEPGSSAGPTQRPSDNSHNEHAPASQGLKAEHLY
Put plainly: flow cytometry, reporter cells [cont'd].

In experiment [6] the target is T5, LILRB2 chimeric receptor on LILRB2 reporter cells (extracellular domain of LILRB2 fused with … (UniProt Q8N423 22-460)).
T5 construct: extracellular domain;domain: transmembrane/intracellular domains; associates with DAP12; also called LILRB2-expressing reporter cells
Put plainly: flow cytometry, LILRB2 reporter cells. The text has this: (§1) FIGS. 1A-C. Screening specific monoclonal antibodies for LILRB2. […] Binding of monoclonal antibodies was screened using flow cytometer on LILRB2 reporter cells. Bound antibodies were detected with Allophycocyanin (APC)-labeled goat anti-human IgG secondary antibody. (FIG. 1B) Quantification of binding ability of monoclonal antibodies to LILRB2 reporter cells.
(§2) Screening specific monoclonal antibodies for LILRB2. The inventors employed a stable reporter cell system to detect the binding ability of selected monoclonal antibodies to LILRB2. In this chimeric receptor reporter system, the extracellular domain (ECD) of LILRB2 is fused with transmembrane/intracellular domains of PILRb that associates with the adaptor protein DAP12 containing an immunoreceptor tyrosine-based activation motif. 27 monoclonal antibodies were screened. The LILRB2 reporter cells were incubated with selected monoclonal antibody, then labeled with (APC) goat anti-human IgG secondary antibody. […] The inventors generated LILRBAs and LILRBs reporters stably transduced with each receptor's extracellular domain (ECD).

In experiment [7] the target is T5, LILRB2 chimeric receptor on LILRB2 …. Description: flow cytometry on LILRB2 reporter cells, APC anti-human IgG.
Text: as §1, §2

T3 sequence (chain, as listed by the source limits assumed): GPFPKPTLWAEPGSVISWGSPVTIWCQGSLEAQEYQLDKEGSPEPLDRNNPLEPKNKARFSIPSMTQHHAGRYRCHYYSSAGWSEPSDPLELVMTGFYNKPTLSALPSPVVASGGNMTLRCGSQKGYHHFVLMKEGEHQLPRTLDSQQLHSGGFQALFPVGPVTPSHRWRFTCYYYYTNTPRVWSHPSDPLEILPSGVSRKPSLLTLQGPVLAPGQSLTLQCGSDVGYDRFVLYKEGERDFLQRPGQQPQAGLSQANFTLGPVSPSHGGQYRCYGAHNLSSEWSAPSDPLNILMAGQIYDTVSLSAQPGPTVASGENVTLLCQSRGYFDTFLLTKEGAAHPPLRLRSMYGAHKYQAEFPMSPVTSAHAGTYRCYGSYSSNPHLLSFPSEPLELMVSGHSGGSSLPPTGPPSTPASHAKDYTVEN

B1: B2-12 (antibody, V domains shown)
VH: QVQLVQSGDEVKKAGASVRVSCKASGYTFPDNGISWVRQAPGHGLEWMGWINVDTGYTHYAQRVQDRVVMTTDTSTNTLHMTLRSLTTDDTAVYYCAREIEGVWTAWGQGTLVIVSS
VL: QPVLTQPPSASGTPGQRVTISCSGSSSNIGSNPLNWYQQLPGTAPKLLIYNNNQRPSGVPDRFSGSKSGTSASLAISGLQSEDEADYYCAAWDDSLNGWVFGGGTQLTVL
notes: also called B2-12_HC; B2-12_LC
What is called EC50 is the concentration needed to bring the measured effect to its halfway point. Higher therefore signals a need for much substance. Regarding B1, in experiment [1], the “fold potency of binding to LILRB2 against binding to LILRA1” value was greater than 100 fold. This molecule gave an EC50 in experiment [2] of 0.444 nM. Besides, the binding result in experiment [3], in experiment [4] and in experiment [5] was “no binding” in each case. Also, the “% of cells anti-hIgG APC+” value in experiment [6] worked out at 25.5%.

B2: B2-18 (antibody, V domains shown)
VH: QVQLVQSGAEVKKPGASVKVSCKASGYTFTRYGFSWVRQAPGQGLEWMGWISGYNGNTKYAQKFQGRVTMTTDTSTSTAYMELRSLTSNDTAVYYCARDRGSGYLEYWGPGTLVTVSS
VL: DVQMTQSPSSLSASVGERVTLTCRASQGIYSSLAWYQQKPGKAPKLLLYGTSQLERGVPSRFSGSGSGTDYTLTISSLQPEDSATYYCQQHYNLPITFGQGTRLEIK
notes: also called B2-18_HC; B2-18_LC
On to B2, for which the “fold potency of binding to LILRB2 against binding to LILRA1” value in experiment [1] was greater than 100 fold. Also, the EC50 in experiment [2] was 0.355 nM. The binding result in experiment [3], in experiment [4] and in experiment [5] was “no binding” in each case. In addition, the “% of cells anti-hIgG APC+” value in experiment [6] came to 75.6%. The “percent of LILRB2 reporter cells labeled” value in experiment [7] is greater than 95%.
